The values below come from patent US20040259781A1 (Novartis, published 2004).

The target of assay [1] is Fibronectin (purified from horse serum) (horse) (UniProt Q28377). Description: cell-based or functional assay.
The target in assay [2] is T1, Syndecan-1 overexpressed on T98G glioblastoma cells (mouse, UniProt P18828 23-311).
T1 construct: whole, on cells; also called T98G:S1
T1 sequence (looked up): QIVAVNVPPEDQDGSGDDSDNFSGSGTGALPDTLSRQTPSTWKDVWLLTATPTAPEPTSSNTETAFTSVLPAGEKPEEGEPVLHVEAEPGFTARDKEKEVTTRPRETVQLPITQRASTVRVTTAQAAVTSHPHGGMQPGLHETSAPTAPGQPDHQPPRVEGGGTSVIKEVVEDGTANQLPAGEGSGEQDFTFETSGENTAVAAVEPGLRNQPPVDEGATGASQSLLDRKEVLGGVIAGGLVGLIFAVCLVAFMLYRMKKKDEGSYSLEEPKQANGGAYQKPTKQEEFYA
Description: GST pull-down of cell surface-bound FNIII13 and western blot, immunofluorescence. A general note: A western blot detects proteins with antibodies after separation by electrophoresis.

Setting [3] is: scale: relative increase in cpm over cells plated on fibronectin.

Fibronectin (purified from horse serum) (horse), sequence (Q28377 32-2477): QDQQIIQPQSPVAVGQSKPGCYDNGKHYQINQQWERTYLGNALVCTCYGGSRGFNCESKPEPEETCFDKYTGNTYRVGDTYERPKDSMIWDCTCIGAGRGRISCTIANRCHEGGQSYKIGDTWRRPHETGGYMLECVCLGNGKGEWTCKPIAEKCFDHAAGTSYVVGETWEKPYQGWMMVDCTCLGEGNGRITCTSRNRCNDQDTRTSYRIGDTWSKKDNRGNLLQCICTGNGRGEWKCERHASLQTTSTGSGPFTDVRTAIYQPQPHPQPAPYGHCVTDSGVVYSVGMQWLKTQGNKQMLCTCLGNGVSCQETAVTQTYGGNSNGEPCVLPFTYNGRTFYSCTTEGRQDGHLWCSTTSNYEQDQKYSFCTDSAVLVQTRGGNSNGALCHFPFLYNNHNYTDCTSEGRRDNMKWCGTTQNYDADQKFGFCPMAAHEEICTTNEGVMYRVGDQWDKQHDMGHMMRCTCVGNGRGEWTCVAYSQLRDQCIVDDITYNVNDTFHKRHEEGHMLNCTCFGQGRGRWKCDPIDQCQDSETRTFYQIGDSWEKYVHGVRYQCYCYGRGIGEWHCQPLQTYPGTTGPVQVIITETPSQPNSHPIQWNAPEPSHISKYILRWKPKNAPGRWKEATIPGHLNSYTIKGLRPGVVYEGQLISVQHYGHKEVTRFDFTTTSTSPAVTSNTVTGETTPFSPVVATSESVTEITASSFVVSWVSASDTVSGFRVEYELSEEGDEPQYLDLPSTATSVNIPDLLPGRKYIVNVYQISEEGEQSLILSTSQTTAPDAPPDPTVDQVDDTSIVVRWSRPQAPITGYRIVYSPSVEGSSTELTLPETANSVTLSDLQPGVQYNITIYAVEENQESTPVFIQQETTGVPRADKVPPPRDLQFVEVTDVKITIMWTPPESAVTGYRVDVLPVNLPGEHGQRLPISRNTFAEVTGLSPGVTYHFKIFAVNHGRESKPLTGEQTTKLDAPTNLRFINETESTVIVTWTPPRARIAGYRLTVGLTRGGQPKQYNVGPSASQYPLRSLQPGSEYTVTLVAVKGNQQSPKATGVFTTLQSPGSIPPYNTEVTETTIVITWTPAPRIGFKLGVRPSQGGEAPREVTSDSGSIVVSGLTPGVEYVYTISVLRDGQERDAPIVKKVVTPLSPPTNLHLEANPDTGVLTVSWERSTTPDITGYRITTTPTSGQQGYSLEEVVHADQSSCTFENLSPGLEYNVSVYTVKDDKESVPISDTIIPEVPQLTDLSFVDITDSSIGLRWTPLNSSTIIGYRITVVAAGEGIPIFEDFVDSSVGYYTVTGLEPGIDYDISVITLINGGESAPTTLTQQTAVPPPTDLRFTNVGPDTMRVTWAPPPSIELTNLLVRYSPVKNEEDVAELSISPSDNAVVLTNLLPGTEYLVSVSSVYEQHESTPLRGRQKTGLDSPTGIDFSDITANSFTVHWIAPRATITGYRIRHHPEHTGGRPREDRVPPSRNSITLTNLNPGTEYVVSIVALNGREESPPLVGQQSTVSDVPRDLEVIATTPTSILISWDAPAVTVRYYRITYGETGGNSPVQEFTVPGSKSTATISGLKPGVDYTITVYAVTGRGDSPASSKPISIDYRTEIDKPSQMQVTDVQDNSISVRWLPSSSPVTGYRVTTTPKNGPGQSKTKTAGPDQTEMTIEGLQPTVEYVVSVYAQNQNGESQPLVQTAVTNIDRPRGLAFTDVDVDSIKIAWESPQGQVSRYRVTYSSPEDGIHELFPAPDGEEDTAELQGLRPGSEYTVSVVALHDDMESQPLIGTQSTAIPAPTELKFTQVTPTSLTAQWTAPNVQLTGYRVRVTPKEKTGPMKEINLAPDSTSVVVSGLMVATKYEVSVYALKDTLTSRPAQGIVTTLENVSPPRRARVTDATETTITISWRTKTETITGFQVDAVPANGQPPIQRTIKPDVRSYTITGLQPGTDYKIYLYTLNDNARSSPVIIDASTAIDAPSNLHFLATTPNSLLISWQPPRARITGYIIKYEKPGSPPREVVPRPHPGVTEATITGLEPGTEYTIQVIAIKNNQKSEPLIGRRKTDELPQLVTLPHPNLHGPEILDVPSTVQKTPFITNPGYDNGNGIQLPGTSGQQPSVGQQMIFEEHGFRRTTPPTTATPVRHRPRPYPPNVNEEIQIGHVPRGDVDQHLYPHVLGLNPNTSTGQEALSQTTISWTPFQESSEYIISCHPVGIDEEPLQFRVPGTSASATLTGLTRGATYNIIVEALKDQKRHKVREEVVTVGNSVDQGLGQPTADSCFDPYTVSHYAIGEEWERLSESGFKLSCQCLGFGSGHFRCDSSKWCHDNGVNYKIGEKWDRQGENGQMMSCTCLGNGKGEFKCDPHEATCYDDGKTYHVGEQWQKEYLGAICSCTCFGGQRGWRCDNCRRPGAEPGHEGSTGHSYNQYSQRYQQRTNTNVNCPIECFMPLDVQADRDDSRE

“Full length chicken tenascin-C TN260 (from UniProt P10039 34-1808)”: in assay [1], the CHO-B2 cells (ITS) attached on FN/TN substratum, 20 h (% of cells attached on fibronectin) came out at 31.5; the CHO-B2α27 cells (ITS) attached on FN/TN substratum, 20 h (% of cells attached on fibronectin) was 45.1; the CHO-K1 cells (ITS) attached on FN/TN substratum, 20 h (% of cells attached on fibronectin) amounted to 37.9; the MDA MB 435 cells (insulin) attached on FN/TN substratum, 20 h (% of cells attached on fibronectin) was found to be 62.2. In assay [1], this molecule registered an MDA MB 435 cells attached on FN/TN substratum, 1 h (% of cells attached on fibronectin) of 24.5; an MDA-MB435 cell number on fibronectin/tenascin-C against fibronectin, 51 h of 24 % more cells; an MDA-MB435 cell number on fibronectin/tenascin-C against fibronectin, 75 h of 33 % more cells; a T98G cells (PDGF-BB) attached on FN/TN substratum, 20 h (% of cells attached on fibronectin) of 50.4. In assay [1], this molecule returned a T98G cells attached on FN/TN substratum, 1 h (% of cells attached on fibronectin) of 31.9 and a T98G cells partially spread on mixed fibronectin/tenascin-C substratum after 20 h of 45%. In assay [1] (setting [3]), the DNA replication (3H-thymidine incorporation) of CHO-B2 cells on FN/TN was found to be 2.6, the DNA replication (3H-thymidine incorporation) of CHO-B2α27 cells on FN/TN was determined as 2.5, the DNA replication (3H-thymidine incorporation) of CHO-K1 cells on FN/TN stood at 2.3 and the DNA replication (3H-thymidine incorporation) of MDA MB 435 cells on FN/TN was 1.8. This molecule yielded a DNA replication (3H-thymidine incorporation) of T98G cells on FN/TN in assay [1] (setting [3]) of 3.
In assay [1], “Syndecan-4 overexpressed on T98G glioblastoma cells (receptor)” yielded an attachment of syndecan-4 overexpressing T98G:S4 cells on fibronectin/tenascin-C substratum of 64.7%.

B1: Recombinant 13th fibronectin type III repeat (FNIII13) (other)
chain: NVSPPRRARVTDATETTITISWRTKTETITGFQVDAVPANGQTPIQRTIKPDVRSYTITGLQPGTDYKIYLYTLNDNARSSPVVIDAST
notes: Obtained as in Bloom et al 1999; also called GST-tagged FNIII13; not shown: GST tag and His tag (pulled down with glutathione Sepharose, detected with anti-GST and anti-His, isolated on Ni-NTA)
For the molecule B1, the binding result in assay [2] was “no binding”.
